Assay results as given in publication PMC5043372, “A pre-metazoan origin of the CRK gene family and co-opted signaling network” (Scientific Reports, 2016).
Non-standard residues stand in square brackets, D forms with d. No end group written: not given here. pY = N[C@@H](Cc1ccc(OP(=O)(O)O)cc1)C(=O)O

Target: T1, SH2 domain of Monosiga brevicollis crka1 (Monosiga brevicollis, UniProt A0A1C9VNP8 1-97)
T1 construct: seven additional amino acids left at the N-terminus after His-tag removal; For the NMR structure the same domain was made with the E. coli cell-free protein synthesis system; also called Mb-crka1 SH2; crka1 SH2 domain
T1 sequence: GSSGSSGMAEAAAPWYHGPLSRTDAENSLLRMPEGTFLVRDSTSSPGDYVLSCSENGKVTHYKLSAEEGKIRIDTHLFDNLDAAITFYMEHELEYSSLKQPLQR
Test: ITC; peptide (400 uM) injected into the cell holding the SH2 domain (40 uM); 25 °C; 25 mM HEPES, pH7, 100 mM NaCl; MicroCal Auto-iTC200
Details: both partners purified

B1: phosphopeptide EM-pYDVP-RS of S. rosetta PTSG_05573 (peptide)
peptide: EM[pY]DVPRS
notes: together with DM-pYDVP-RN it overlaps 5 of the 10 YxxP motifs; source: synthetic peptide, bought: Toray Research Center
binding result: binds

B2: phosphopeptide DM-pYDVP-RN of S. rosetta PTSG_05573 (peptide)
peptide: DM[pY]DVPRN
notes: together with EM-pYDVP-RS it overlaps 5 of the 10 YxxP motifs; source: synthetic peptide, bought: Toray Research Center
binding result: binds
